Drawing on paper PMC9351520, this text covers Kd for one substance.

pKd: −log10 of the molar value.

For experiment [1], the target named is fluorescently Ct-labeled six-residue peptide bearing Nt-Glu. Description: fluorescence polarisation. (In general: Polarisation of emitted light reports the rotation of a fluorescent probe.)
Experiment [2] concerns the target fluorescently Ct-labeled six-residue peptide bearing Nt-Asp. The experiment in a line: fluorescence polarisation.

What is called pKd is the negative decadic logarithm of the Kd, by convention in mol/L. A low value points to a high Kd. With “klAte1, the Ate1 arginyl-tRNA-protein transferase (R-transferase) of Kluyveromyces lactis (enzyme)”, the pKd in experiment [1] and in experiment [2] was < 4.00 throughout.
